Measured values published in patent publication US10246503B2, “Method of improving the pharmacokinetic profile of a therapeutic polypeptide and the use thereof” (BEIJING ANXINHUAIDE BIOTECH. CO., LTD, priority 2012, dated 2019).

Assays:
SD rats [1] = assay: toxicity in SD rats; assay type: in vivo
From the text: The toxicity of GLP1(A8G/G22E/R36G)-Fn8-p246-COL18NC1 in SD rats was also examined.

[2] = pharmacokinetics in SD rats, sandwich ELISA (Example 15); assay type: in vivo, SD (Sprague-Dawley) rats; settings: intraperitoneal, 5 nmol/kg
Procedure: To evaluate the pharmacokinetics profiles for the GLP-1 containing fusion proteins generated using the method of the invention, we purified the recombinant fusion proteins of GLP-1-Fn8-COL18NC1, GLP1(A8G/G22E/R36G)-Fn8-p246-COL18NC1 and GLP1(A8G/G22E/R36G)-Fn8-p285-COL18NC1 in PBS buffer, pH 7.2. These fusion proteins were administered into SD (Sprague-Dawley) rats by intraperitoneal injections at the dose of 5 nmol/kg for animals, respectively. Blood samples were taken at various time points after injections such as 0-min, 30-min, 1-hour, 2-hour, 4-hour, 6-hour, 8-hour, 24-hour, 48-hour, 3-day, 4-day, 5-day, 6-day and 7-day. The serum samples were centrifuged and kept at −80° C. freezer.
The GLP-1 concentrations within the samples were examined by use of the sandwich ELISA method. The rabbit polyclonal antibody against human Fibronectin at the concentration of 3 ug/ml (Ab299, Abcam company) was coated on ELISA plate for 1 hour at room temperature. Then the plate was washed by PBST buffer three times and the wells were blocked by PBS with 10% FBS for 1 hour at room temperature. The plate was washed three times before the serum samples containing GLP-1 fusion proteins were added. The serum samples could be diluted to 20-10000 folds before use. The ELISA plate was incubated with the serum samples at room temperature for 1 hour and then washed by PBST buffer five times. Then mouse monoclonal against human GLP-1 peptide antibody (sc57510, Santa Cruz Biotechnology) at the concentration of 1 ug/ml in PBST buffer was added to the wells. The plate was washed extensively after incubation of 1 hour at room temperature. The secondary antibody, […] HRP conjugated antibody (Beijing ZSGB-Bio company, ZB 5301), was added into the wells and the color was developed using TMB (3,3′,5,5′-tetramethylbenzidine, BD Biosciences, Cat 555214). The plate reader (Bio-Rad microplate reader Model 680) was utilized to obtain the OD450 readings. This method has been calibrated using purified proteins first.
The pharmacokinetics parameters were obtained by using the WinNonlin software (Table 5).

cynomolgus monkeys = assay: specific antibody against the fusion protein in monkey serum, ELISA; assay type: in vivo; settings: serum of three cynomolgus monkeys one month after dosing
From the text: The serum samples of the cynomolgus monkeys receiving the fusion protein GLP1(A8G/G22E/R36G)-Fn8-p246-COL18NC1 were withdrawn one month after dosing to examine whether specific antibody against GLP1(A8G/G22E/R36G)-Fn8-p246-COL18NC1 has been generated.

SD rats [3] = assay: Intraperitoneal glucose tolerance test (IPGTT) in SD rats; assay type: in vivo, SD (Sprague-Dawley) rats
Procedure: In this figure, GLP1(A8G/G22E/R36G)-Fn8-p246-COL18NC1 is labeled as p246. In FIG. 9a, the rats were injected with saline, GLP1(A8G/G22E/R36G)-Fn8-p246-COL18NC1 at the dose of 10_nmol/kg and 20_nmol/kg, respectively. 8 hours after the administrations of the fusion protein (and control), the IPGTT experiments were conducted. The three curves indicated the glucose levels in the IPGTT for rats that received negative control (saline), GLP1(A8G/G22E/R36G)-Fn8-p246-COL18NC1 at the doses of 10_nmol/kg and 20_nmol/kg, respectively. In FIG. 9b, the rats were injected with saline, GLP1(A8G/G22E/R36G)-Fn8-p246-COL18NC1 at the dose of 20 nmol/kg. 32 hours and 102 hours after the administrations of the fusion protein (and the control), the IPGTT experiments were conducted. The three curves indicated the glucose levels in the IPGTT for rats that 32 hours and 102 hours after administration of negative control (saline), GLP1(A8G/G22E/R36G)-Fn8-p246-COL18NC1 respectively.
To evaluate the efficacy of GLP1(A8G/G22E/R36G)-Fn8-p246-COL18NC1 to reduce the glucose level in animal models, we performed the Intraperitoneal glucose tolerance test (IPGTT) in SD rats. The fusion protein GLP1(A8G/G22E/R36G)-Fn8-p246-COL18NC1 was administered on SD (Sprague-Dawley) rats by intraperitoneal injections at the dose of 10 nmol/kg and 20 nmol/kg for animals, respectively. Glucose was injected into the animals with the dose of 2 g/kg at 8 hours, 32 hours and 100 hours after the injection of the fusion protein GLP1(A8G/G22E/R36G)-Fn8-p246-COL18NC1. Blood samples were taken at various time points after injections such as 0-min, 10-min, 20-min, 30-min, 60-min and 120-min. The glucose levels within the blood samples were measured using a Accu-Chek Performa blood glucose meter (Roche) immediately. In FIG. 9a, the rats were injected with GLP1(A8G/G22E/R36G)-Fn8-p246-COL18NC1 at the dose of 10 nmol/kg and 20 nmol/kg about 8 hours before the IPGTT experiments were conducted. […] In FIG. 9b, about 32 hours and 100 hours after the rats were injected with GLP1(A8G/G22E/R36G)-Fn8-p246-COL18NC1 at the dose of 20 nmol/kg, the IPGTT experiments were conducted.

B1: GLP1(A8G/G22E/R36G)-Fn8-p246-COL18NC1: GLP-1 mutant, Fn8, pCloud p246, COL18NC1 fusion; SEQ ID NO: 16 (protein)
chain: HGEGTFTSDVSSYLEEQAAKEFIAWLVKGGGSGGGSGGGSGGGSGGGSGSGGAVPPPTDLRFTNIGPDTMRVTWAPPPSIDLTNFLVRYSPVKNEEDVAELSISPSDNAVVLTNLLPGTEYVVSVSSVYEQHESTPLRGRQKTGGGGSGGGSGSGSESGSGGGSTSSGTGSETESPGSGSESGSGPSSAGSGSGSESGSGSGSSGPGSTGGSGSESGSGPGSSGTGGTATGSGSESGSGPGSSGPGSTGSGSGSESGSGSGSSGTGSTGGSGSESGSGPGSPRPGSTGTGSGSESGSGPGSSERGSAGGSGSESGSGTSESSASGSTGGSGSESGSGSESGSGSGSESGSGPESPGSGGSGSESGSGTSGSTGSGSESGSGGGSGGGSGGGASSGVRLWATRQAMLGQVHEVPEGWLIFVAEQEELYVRVQNGFRKVQLEARTPLPRG
- unacceptable adverse effects such as significant weight loss and fever (SD rats [1]; repeated doses of 5 nmol/kg every three days for four weeks): did not induce unacceptable adverse effects
- unacceptable adverse effects such as significant weight loss and fever (SD rats [1]; single dose of 30 nmol/kg): did not induce unacceptable adverse effects
- AUCall ([2]; Rats): 301.2 µg·h/mL
- CL/F ([2]; Rats): 2.03 mL/h/kg
- Cmax ([2]; Rats): 5.73 µg/mL
- T½ ([2]; Rats): 30.8 h
- Vss ([2]; Rats): 90.23 mL/kg
- half life ([2]; SD rats): 30.8 h
- specific antibody against the fusion protein (cynomolgus monkeys): no specific antibody was induced
- glucose level in IPGTT (SD rats [3]; 10 nmol/kg intraperitoneal, about 8 hours before IPGTT, glucose 2 g/kg): can efficiently reduce the glucose level
- glucose level in IPGTT (SD rats [3]; 20 nmol/kg intraperitoneal, about 8 hours before IPGTT, glucose 2 g/kg): can efficiently reduce the glucose level
- glucose level in IPGTT (SD rats [3]; 20 nmol/kg, 100 hours after the injection): can still reduce the glucose level significantly
- glucose-reducing activity in IPGTT (SD rats [3]; single dose 20 nmol/kg, IPGTT about 32 hours and 100 hours after injection): can maintain its glucose-reducing activity in vivo for an extended period of time
